Publication PMC9816786

Target: Human PCSK9 (full length), 6xHis-tagged, purified (human) (UniProt Q8NBP7)
Test: BLI; biotinylated PCSK9 or biotinylated CHRD immobilised (0.2 μg/ml), CAP1 in solution, pH 7.5, association and dissociation 600 s

Chain of Human CAP1 (cyclase associated protein 1), 6xHis-tagged, purified (Q01518 whole entry): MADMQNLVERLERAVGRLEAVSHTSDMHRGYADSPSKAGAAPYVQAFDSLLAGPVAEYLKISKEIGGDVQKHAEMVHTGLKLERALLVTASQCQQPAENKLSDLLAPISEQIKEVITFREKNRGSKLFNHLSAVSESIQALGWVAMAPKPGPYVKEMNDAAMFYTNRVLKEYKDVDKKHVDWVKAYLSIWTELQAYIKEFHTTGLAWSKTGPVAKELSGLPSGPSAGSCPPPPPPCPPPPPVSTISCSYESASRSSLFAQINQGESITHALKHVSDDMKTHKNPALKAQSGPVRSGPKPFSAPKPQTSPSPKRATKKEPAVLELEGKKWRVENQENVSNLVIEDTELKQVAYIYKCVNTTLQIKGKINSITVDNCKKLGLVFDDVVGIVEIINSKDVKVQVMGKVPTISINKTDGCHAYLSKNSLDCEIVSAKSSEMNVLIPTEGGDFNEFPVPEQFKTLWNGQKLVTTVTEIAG

Kd: 1.36 µM
koff: 0.00094 s⁻¹
kon: 690 M⁻¹ s⁻¹
Substance: Human CAP1 (cyclase associated protein 1), 6xHis-tagged, purified (from UniProt Q01518 1-475) (natural protein)
